{"source": "IntAct's records for PubMed 12093730", "parents": {"B1": {"name": "Guanine nucleotide exchange factor SopE (Salmonella typhimurium), O52623 (parent)", "chain": "MTKITLSPQNFRIQKQETTLLKEKSTEKNSLAKSILAVKNHFIELRSKLSERFISHKNTESSATHFHRGSASEGRAVLTNKVVKDFMLQTLNDIDIRGSASKDPAYASQTREAILSAVYSKNKDQCCNLLISKGINIAPFLQEIGEAAKNAGLPGTTKNDVFTPSGAGANPFITPLISSANSKYPRMFINQHQQASFKIYAEKIIMTEVAPLFNECAMPTPQQFQLILENIANKYIQNTP"}}}
{"variants_of": "B1", "conditions": "with cdc42_human CDC42, P60953"}
{"variant": "G168A", "effect of a mutation on the interaction": "decreasing interaction"}
